{
  "source": "paper PMC11911400",
  "about": "“Mechanism of ASF1 engagement by CDAN1” (Nature Communications, 2025)",
  "binders": {"B1": {"name": "Strep-CDAN1C (CDAN1 MA3 domain, residues 1008-1227) (domain or fragment, human, UniProt Q8IWY9 1008-1227, looked up)", "chain": "GERRGCSRACEHHAPLPSHLISEIKDVLSLAVGPRDPDEGVSPEHLEQLLGQLGQTLRCRQFLCPPAEQHLAKCSVELASLLVADQIPILGPPAQYRLERGQARRLLHMLLSLWKEDFQGPVPLQLLLSPRNVGLLADTRPREWDLLLFLLRELVEKGLMGRMEIEACLGSLHQAQWPGDFAEELATLSNLFLAEPHLPEPQLRACELVQPNRGTVLAQS", "notes": "also called ST-CDAN1C; CDAN1 C-term; source: Expi293, transiently transfected, purified in complex with F-CDIN1 (anti-FLAG, Strep-Tactin); not shown: 3xStrep-II-TEV, N-terminal, kept"}, "B2": {"name": "Strep-tagged CDAN1 (ST-CDAN1), wildtype (natural protein, human)", "chain": "MAAVLESLLREEVSVAAVVRWIARSTQGSEDNAGEAAALSSLRALRKEFVPFLLNFLREQSSRVLPQGPPTPAKTPGASAALPGRPGGPPRGSRGARSQLFPPTEAQSTAAEAPLARRGGRRRGPGPARERGGRGLEEGVSGESLPGAGGRRLRGSGSPSRPSLTLSDPPNLSNLEEFPPVGSVPPGPTGTKPSRRINPTPVSEERSLSKPKTCFTSPPISCVPSSQPSALDTSPWGLGLPPGCRSLQEEREMLRKERSKQLQQSPTPTCPTPELGSPLPSRTGSLTDEPADPARVSSRQRLELVALVYSSCIAENLVPNLFLELFFVFQLLTARRMVTAKDSDPELSPAVLDSLESPLFQSIHDCVFFAVQVLECHFQVLSNLDKGTLKLLAENERLLCFSPALQGRLRAAYEGSVAKVSLVMPPSTQAVSFQPETDNRANFSSDRAFHTFKKQRDVFYEVLREWEDHHEEPGWDFEKGLGSRIRAMMGQLSAACSHSHFVRLFQKQLLQMCQSPGGAGGTVLGEAPDVLSMLGADKLGRLWRLQERLMAPQSSGGPCPPPTFPGCQGFFRDFILSASSFQFNQHLMDSLSLKIQELNGLALPQHEPNDEDGESDVDWQGERKQFAVVLLSLRLLAKFLGFVAFLPYRGPEPPPTGELQDSILALRSQVPPVLDVRTLLQRGLQARRAVLTVPWLVEFLSFADHVVPLLEYYRDIFTLLLRLHRSLVLSQESEGKMCFLNKLLLLAVLGWLFQIPTVPEDLFFLEEGPSYAFEVDTVAPEHGLDNAPVVDQQLLYTCCPYIGELRKLLASWVSGSSGRSGGFMRKITPTTTTSLGAQPSQTSQGLQAQLAQAFFHNQPPSLRRTVEFVAERIGSNCVKHIKATLVADLVRQAESLLQEQLVTQGEEGGDPAQLLEILCSQLCPHGAQALALGREFCQRKSPGAVRALLPEETPAAVLSSAENIAVGLATEKACAWLSANITALIRREVKAAVSRTLRAQGPEPAARGERRGCSRACEHHAPLPSHLISEIKDVLSLAVGPRDPDEGVSPEHLEQLLGQLGQTLRCRQFLCPPAEQHLAKCSVELASLLVADQIPILGPPAQYRLERGQARRLLHMLLSLWKEDFQGPVPLQLLLSPRNVGLLADTRPREWDLLLFLLRELVEKGLMGRMEIEACLGSLHQAQWPGDFAEELATLSNLFLAEPHLPEPQLRACELVQPNRGTVLAQS", "notes": "Codanin-1 (CDAN1), human, 1227 residues; cDNA from Horizon Discovery/Dharmacon, its point mutation S421F corrected; same construct used in Expi293 and in Flp-In 293 T-REx cells; dimer by SEC-MALS and cryo-EM; also called Strep-CDAN1; WT CDAN1; source: Expi293, transiently transfected, in lysate and purified in complexes (anti-FLAG, Strep-Tactin); Flp-In 293 T-REx, transiently transfected, in …"}, "B3": {"name": "FLAG-tagged CDIN1 (F-CDIN1) (natural protein, UniProt Q9Y2V0 1-281, looked up)", "chain": "MILTKAQYDEIAQCLVSVPPTRQSLRKLKQRFPSQSQATLLSIFSQEYQKHIKRTHAKHHTSEAIESYYQRYLNGVVKNGAAPVLLDLANEVDYAPSLMARLILERFLQEHEETPPSKSIINSMLRDPSQIPDGVLANQVYQCIVNDCCYGPLVDCIKHAIGHEHEVLLRDLLLEKNLSFLDEDQLRAKGYDKTPDFILQVPVAVEGHIIHWIESKASFGDECSHHAYLHDQFWSYWNRFGPGLVIYWYGFIQELDCNRERGILLKACFPTNIVTLCHSIA", "notes": "C15orf41); cDNA synthesized by IDT; source: Expi293, transiently transfected, in lysate and purified in complexes (anti-FLAG, Strep-Tactin); not shown: 3xFLAG, N-terminal, kept"}},
  "key": {"[1]": {"target": "B3", "assay": "cryo-EM structure; purified ST-CDAN1C:F-CDIN1 (C:C) complex, cross-linked with BS3, 0.78 mg/mL; ~6 Å reconstruction, no model built", "conditions": "both partners purified"}, "[2]": {"target": "the molecule itself", "assay": "SEC-MALS; 200 µg of each purified complex at 5 µM on SRT SEC-300 column, PBS pH 7.4 with 1 mM DTT; DAWN HELEOS II; dn/dc 0.185"}, "[3]": {"target": "the molecule itself", "assay": "cryo-EM structure; tandem-purified C:C:A complex cross-linked with 250 µM BS3, 1 mg/mL; single-particle cryo-EM, 3.0 to 3.5 Å"}, "[4]": {"target": "B2", "assay": "SEC-MALS; 200 µg of each purified complex at 5 µM on SRT SEC-300 column, PBS pH 7.4 with 1 mM DTT; DAWN HELEOS II; dn/dc 0.185", "conditions": "both partners purified"}},
  "data": [
    {"binder": "B1", "values": [
      {"measurement": "binding result", "setting": "[1]", "value": "binds"}
    ]},
    {"binder": "B2", "values": [
      {"measurement": "stoichiometry N", "setting": "[2]", "value": 2, "unit": "CDAN1 per complex"},
      {"measurement": "stoichiometry N", "setting": "[3]", "value": 2}
    ]},
    {"binder": "B3", "values": [
      {"measurement": "stoichiometry N", "setting": "[4]", "value": 2, "unit": "CDIN1 per two CDAN1"}
    ]}
  ]
}
